These are literature values, as cited in publication PMC7905041.

As usually defined, the Kd is the equilibrium constant for the complex coming apart.

This series deals with CD40 ECD (Homo sapiens) (UniProt P25942). The series can be described thus: SPR. On the technique in general: SPR reads the build-up and loss of mass on a sensor chip optically.

Consider CD40 CRD1/PLAD (from UniProt P25942), for which the Kd is 600 nM.
